Laboratory results reported in US20040087777A1.

Key:
Experiment in all cases: rNET
… analog, Residue 4 = A = molecular target: … analog, Residue 4 = A
… analog, Residue 4 = C = molecular target: … analog, Residue 4 = C
… analog, Residue 4 = D = molecular target: … analog, Residue 4 = D
… analog, Residue 4 = E = molecular target: … analog, Residue 4 = E
… analog, Residue 4 = G = molecular target: … analog, Residue 4 = G
… analog, Residue 4 = I = molecular target: … analog, Residue 4 = I
… analog, Residue 4 = K = molecular target: … analog, Residue 4 = K
… analog, Residue 4 = L = molecular target: … analog, Residue 4 = L
… analog, Residue 4 = M = molecular target: … analog, Residue 4 = M
… analog, Residue 4 = N = molecular target: … analog, Residue 4 = N
… analog, Residue 4 = P = molecular target: … analog, Residue 4 = P
… analog, Residue 4 = Q = molecular target: … analog, Residue 4 = Q
… analog, Residue 4 = R = molecular target: … analog, Residue 4 = R
… analog, Residue 4 = S = molecular target: … analog, Residue 4 = S
… analog, Residue 4 = T = molecular target: … analog, Residue 4 = T
… analog, Residue 4 = V = molecular target: … analog, Residue 4 = V
… analog, Residue 4 = W = molecular target: … analog, Residue 4 = W
… analog, Residue 4 = Y = molecular target: … analog, Residue 4 = Y
… analog, Residue 5 = A = molecular target: … analog, Residue 5 = A
… analog, Residue 5 = C = molecular target: … analog, Residue 5 = C
… analog, Residue 5 = D = molecular target: … analog, Residue 5 = D
… analog, Residue 5 = E = molecular target: … analog, Residue 5 = E
… analog, Residue 5 = F = molecular target: … analog, Residue 5 = F
… analog, Residue 5 = I = molecular target: … analog, Residue 5 = I
… analog, Residue 5 = L = molecular target: … analog, Residue 5 = L
… analog, Residue 5 = M = molecular target: … analog, Residue 5 = M
… analog, Residue 5 = N = molecular target: … analog, Residue 5 = N
… analog, Residue 5 = P = molecular target: … analog, Residue 5 = P
… analog, Residue 5 = Q = molecular target: … analog, Residue 5 = Q
… analog, Residue 5 = S = molecular target: … analog, Residue 5 = S
… analog, Residue 5 = T = molecular target: … analog, Residue 5 = T
… analog, Residue 5 = V = molecular target: … analog, Residue 5 = V
… analog, Residue 5 = W = molecular target: … analog, Residue 5 = W
… analog, Residue 5 = Y = molecular target: … analog, Residue 5 = Y
… analog, Residue 6 = A = molecular target: … analog, Residue 6 = A
… analog, Residue 6 = C = molecular target: … analog, Residue 6 = C
… analog, Residue 6 = D = molecular target: … analog, Residue 6 = D
… analog, Residue 6 = E = molecular target: … analog, Residue 6 = E
… analog, Residue 6 = F = molecular target: … analog, Residue 6 = F
… analog, Residue 6 = G = molecular target: … analog, Residue 6 = G
… analog, Residue 6 = I = molecular target: … analog, Residue 6 = I
… analog, Residue 6 = K = molecular target: … analog, Residue 6 = K
… analog, Residue 6 = L = molecular target: … analog, Residue 6 = L
… analog, Residue 6 = M = molecular target: … analog, Residue 6 = M
… analog, Residue 6 = N = molecular target: … analog, Residue 6 = N
… analog, Residue 6 = P = molecular target: … analog, Residue 6 = P
… analog, Residue 6 = Q = molecular target: … analog, Residue 6 = Q
… analog, Residue 6 = R = molecular target: … analog, Residue 6 = R
… analog, Residue 6 = V = molecular target: … analog, Residue 6 = V
… analog, Residue 6 = W = molecular target: … analog, Residue 6 = W
… analog, Residue 6 = Y = molecular target: … analog, Residue 6 = Y
… analog, Residue 7 = A = molecular target: … analog, Residue 7 = A
… analog, Residue 7 = C = molecular target: … analog, Residue 7 = C
… analog, Residue 7 = F = molecular target: … analog, Residue 7 = F
… analog, Residue 7 = G = molecular target: … analog, Residue 7 = G
… analog, Residue 7 = I = molecular target: … analog, Residue 7 = I
… analog, Residue 7 = K = molecular target: … analog, Residue 7 = K
… analog, Residue 7 = L = molecular target: … analog, Residue 7 = L
… analog, Residue 7 = M = molecular target: … analog, Residue 7 = M
… analog, Residue 7 = P = molecular target: … analog, Residue 7 = P
… analog, Residue 7 = Q = molecular target: … analog, Residue 7 = Q
… analog, Residue 7 = R = molecular target: … analog, Residue 7 = R
… analog, Residue 7 = S = molecular target: … analog, Residue 7 = S
… analog, Residue 7 = T = molecular target: … analog, Residue 7 = T
… analog, Residue 7 = V = molecular target: … analog, Residue 7 = V
… analog, Residue 7 = W = molecular target: … analog, Residue 7 = W
… analog, Residue 7 = Y = molecular target: … analog, Residue 7 = Y

B1: murine monoclonal antibody 3D6 (antibody, mouse IgG2b, V domains shown)
VL: not shown
VH: EVKLVESGGGLVKPGASLKLSCAASGFTFSNYGMSWVRQNSDKRLEWVASIRSGGGRTYYSDNVKGRFTISRENAKNTLYLQMSSLKSEDTALYYCVRYDHYSGSSDYWGQGTTVTVSS
OD (… analog, Residue 4 = A): 0.016 OD | OD (… analog, Residue 4 = C): 0.02 OD | OD (… analog, Residue 4 = D): 0.017 OD | OD (… analog, Residue 4 = E): 0.016 OD | OD (… analog, Residue 4 = G): 0.016 OD | OD (… analog, Residue 4 = I): 0.119 OD | OD (… analog, Residue 4 = K): 0.015 OD | OD (… analog, Residue 4 = L): 0.559 OD | OD (… analog, Residue 4 = M): 0.549 OD | OD (… analog, Residue 4 = N): 0.085 OD | OD (… analog, Residue 4 = P): 0.03 OD | OD (… analog, Residue 4 = Q): 0.065 OD | OD (… analog, Residue 4 = R): 0.016 OD | OD (… analog, Residue 4 = S): 0.026 OD | OD (… analog, Residue 4 = T): 0.016 OD | OD (… analog, Residue 4 = V): 0.213 OD | OD (… analog, Residue 4 = W): 0.291 OD | OD (… analog, Residue 4 = Y): 0.529 OD | OD (… analog, Residue 5 = A): 0.275 OD | OD (… analog, Residue 5 = C): 0.359 OD | OD (… analog, Residue 5 = D): 0.08 OD | OD (… analog, Residue 5 = E): 0.115 OD | OD (… analog, Residue 5 = F): 0.439 OD | OD (… analog, Residue 5 = I): 0.51 OD | OD (… analog, Residue 5 = L): 0.517 OD | OD (… analog, Residue 5 = M): 0.418 OD | OD (… analog, Residue 5 = N): 0.476 OD | OD (… analog, Residue 5 = P): 0.093 OD | OD (… analog, Residue 5 = Q): 0.388 OD | OD (… analog, Residue 5 = S): 0.487 OD | OD (… analog, Residue 5 = T): 0.53 OD | OD (… analog, Residue 5 = V): 0.493 OD | OD (… analog, Residue 5 = W): 0.393 OD | OD (… analog, Residue 5 = Y): 0.278 OD | OD (… analog, Residue 6 = A): 0.587 OD | OD (… analog, Residue 6 = C): 0.585 OD | OD (… analog, Residue 6 = D): 0.584 OD | OD (… analog, Residue 6 = E): 0.579 OD | OD (… analog, Residue 6 = F): 0.586 OD | OD (… analog, Residue 6 = G): 0.592 OD | OD (… analog, Residue 6 = I): 0.602 OD | OD (… analog, Residue 6 = K): 0.585 OD | OD (… analog, Residue 6 = L): 0.584 OD | OD (… analog, Residue 6 = M): 0.583 OD | OD (… analog, Residue 6 = N): 0.58 OD | OD (… analog, Residue 6 = P): 0.587 OD | OD (… analog, Residue 6 = Q): 0.57 OD | OD (… analog, Residue 6 = R): 0.576 OD | OD (… analog, Residue 6 = V): 0.588 OD | OD (… analog, Residue 6 = W): 0.576 OD | OD (… analog, Residue 6 = Y): 0.595 OD | OD (… analog, Residue 7 = A): 0.58 OD | OD (… analog, Residue 7 = C): 0.559 OD | OD (… analog, Residue 7 = F): 0.546 OD | OD (… analog, Residue 7 = G): 0.562 OD | OD (… analog, Residue 7 = I): 0.552 OD | OD (… analog, Residue 7 = K): 0.565 OD | OD (… analog, Residue 7 = L): 0.566 OD | OD (… analog, Residue 7 = M): 0.562 OD | OD (… analog, Residue 7 = P): 0.582 OD | OD (… analog, Residue 7 = Q): 0.563 OD | OD (… analog, Residue 7 = R): 0.551 OD | OD (… analog, Residue 7 = S): 0.563 OD | OD (… analog, Residue 7 = T): 0.56 OD | OD (… analog, Residue 7 = V): 0.563 OD | OD (… analog, Residue 7 = W): 0.547 OD | OD (… analog, Residue 7 = Y): 0.56 OD
